Results reported in patent US20040198705A1, “Modulation of steroid hormone uptake” (priority 2001, published 2004).
Read-outs that look alike come from different tables or passages of the source.

Legend:
[1] = molecular target: megalin expressed on Brown Norway yolk sac carcinoma cells (BN16 cells) (UniProt P98158); assay: cell-based or functional assay
[2] = molecular target: SHBG receptors in bovine epididymis membranes permeabilized in digitonin (bovine); assay: radioligand filter binding to digitonin-permeabilized bovine epididymis membranes, competition with unlabelled rSHBG
[3] = molecular target: SHBG receptors in bovine epididymis membranes permeabilized in digitonin (bovine); assay: homologous competition, filter binding: 125I-rSHBG (400 pg) on 600 µg bovine epididymis membranes permeabilized in digitonin, with testosterone, 4 °C 18 h; unlabelled rSHBG varied, 125I-rSHBG as the displaced tracer
[4] = molecular target: SHBG receptors in bovine endometrium membranes permeabilized in digitonin (bovine); assay: homologous competition, filter binding: 125I-rSHBG (400 pg) on 600 µg bovine endometrium membranes permeabilized in digitonin, with testosterone, 4 °C 18 h; unlabelled rSHBG varied, 125I-rSHBG as the displaced tracer
[5] = molecular target: purified native megalin; assay: surface plasmon resonance, native megalin immobilised (51.4 fmol/mm^2), 1 µM testosterone/SHBG complexes in flow, blank chip subtracted
[6] = molecular target: SHBG receptor; conditions: read-out: Kd of receptor binding, cited from earlier work
[7] = tested on: SHBG receptors in bovine epididymis membranes; assay: 125I-rSHBG binding to permeabilized epididymis membranes
Experimental: (§1) FIG. 8. 125I-rSHBG (400 pg) was incubated with 600 μg of membrane preparations from bovine epididymis (A) or endometrium (B) in the presence of the indicated concentrations of unlabelled rSHBG. Values are given as a percentage of 125I-rSHBG bound in the absence of competitor (100%). The data represent the means of four individual experiments (±S.E.M.). Where no error bar is shown, the values are smaller than the actual symbol.
(§2) To test whether recombinant SHBG (rSHBG) interacts with SHBG receptors and in particular whether rSHBG can act as an inhibitor of SHBG binding to an SHBG receptor, the binding of rSHBG to bovine epididymis and endometrium membranes permeabilized in digitonin was assayed. Binding was performed in the presence of testosterone, to achieve steroid hormone-steroid hormone binding protein complex formation.
(§3) Briefly, purified recombinant SHBG was labelled with ^125I using the Iodo-Gen™ method [specific radioactivity (13-15)×10^3 c.p.m./ng]. 400 pg of ^125I—SHBG was mixed with 600 μg of purified membranes (either bovine epididymis or bovine endometrium membranes permeabilized in digitonin) in a total volume of 200 μl of reaction buffer [10 mM Hepes, pH 7.4, 2 mM CaCl2, 1 mM MgCl2, 1% (w/v) BSA, 1 µM ZnCl2, […] testosterone and […] digitonin]. […] The filters were washed extensively with reaction buffer and the amount of bound radioactivity was determined.

[8] = tested on: SHBG receptors in bovine endometrium membranes; assay: 125I-rSHBG binding to permeabilized endometrium membranes; conditions: bovine endometrium membranes permeabilized in digitonin, competition with unlabelled rSHBG
Experimental: as §1, §2, §3

Sequence of UniProt P98158 (P98158 26-4660 limits assumed): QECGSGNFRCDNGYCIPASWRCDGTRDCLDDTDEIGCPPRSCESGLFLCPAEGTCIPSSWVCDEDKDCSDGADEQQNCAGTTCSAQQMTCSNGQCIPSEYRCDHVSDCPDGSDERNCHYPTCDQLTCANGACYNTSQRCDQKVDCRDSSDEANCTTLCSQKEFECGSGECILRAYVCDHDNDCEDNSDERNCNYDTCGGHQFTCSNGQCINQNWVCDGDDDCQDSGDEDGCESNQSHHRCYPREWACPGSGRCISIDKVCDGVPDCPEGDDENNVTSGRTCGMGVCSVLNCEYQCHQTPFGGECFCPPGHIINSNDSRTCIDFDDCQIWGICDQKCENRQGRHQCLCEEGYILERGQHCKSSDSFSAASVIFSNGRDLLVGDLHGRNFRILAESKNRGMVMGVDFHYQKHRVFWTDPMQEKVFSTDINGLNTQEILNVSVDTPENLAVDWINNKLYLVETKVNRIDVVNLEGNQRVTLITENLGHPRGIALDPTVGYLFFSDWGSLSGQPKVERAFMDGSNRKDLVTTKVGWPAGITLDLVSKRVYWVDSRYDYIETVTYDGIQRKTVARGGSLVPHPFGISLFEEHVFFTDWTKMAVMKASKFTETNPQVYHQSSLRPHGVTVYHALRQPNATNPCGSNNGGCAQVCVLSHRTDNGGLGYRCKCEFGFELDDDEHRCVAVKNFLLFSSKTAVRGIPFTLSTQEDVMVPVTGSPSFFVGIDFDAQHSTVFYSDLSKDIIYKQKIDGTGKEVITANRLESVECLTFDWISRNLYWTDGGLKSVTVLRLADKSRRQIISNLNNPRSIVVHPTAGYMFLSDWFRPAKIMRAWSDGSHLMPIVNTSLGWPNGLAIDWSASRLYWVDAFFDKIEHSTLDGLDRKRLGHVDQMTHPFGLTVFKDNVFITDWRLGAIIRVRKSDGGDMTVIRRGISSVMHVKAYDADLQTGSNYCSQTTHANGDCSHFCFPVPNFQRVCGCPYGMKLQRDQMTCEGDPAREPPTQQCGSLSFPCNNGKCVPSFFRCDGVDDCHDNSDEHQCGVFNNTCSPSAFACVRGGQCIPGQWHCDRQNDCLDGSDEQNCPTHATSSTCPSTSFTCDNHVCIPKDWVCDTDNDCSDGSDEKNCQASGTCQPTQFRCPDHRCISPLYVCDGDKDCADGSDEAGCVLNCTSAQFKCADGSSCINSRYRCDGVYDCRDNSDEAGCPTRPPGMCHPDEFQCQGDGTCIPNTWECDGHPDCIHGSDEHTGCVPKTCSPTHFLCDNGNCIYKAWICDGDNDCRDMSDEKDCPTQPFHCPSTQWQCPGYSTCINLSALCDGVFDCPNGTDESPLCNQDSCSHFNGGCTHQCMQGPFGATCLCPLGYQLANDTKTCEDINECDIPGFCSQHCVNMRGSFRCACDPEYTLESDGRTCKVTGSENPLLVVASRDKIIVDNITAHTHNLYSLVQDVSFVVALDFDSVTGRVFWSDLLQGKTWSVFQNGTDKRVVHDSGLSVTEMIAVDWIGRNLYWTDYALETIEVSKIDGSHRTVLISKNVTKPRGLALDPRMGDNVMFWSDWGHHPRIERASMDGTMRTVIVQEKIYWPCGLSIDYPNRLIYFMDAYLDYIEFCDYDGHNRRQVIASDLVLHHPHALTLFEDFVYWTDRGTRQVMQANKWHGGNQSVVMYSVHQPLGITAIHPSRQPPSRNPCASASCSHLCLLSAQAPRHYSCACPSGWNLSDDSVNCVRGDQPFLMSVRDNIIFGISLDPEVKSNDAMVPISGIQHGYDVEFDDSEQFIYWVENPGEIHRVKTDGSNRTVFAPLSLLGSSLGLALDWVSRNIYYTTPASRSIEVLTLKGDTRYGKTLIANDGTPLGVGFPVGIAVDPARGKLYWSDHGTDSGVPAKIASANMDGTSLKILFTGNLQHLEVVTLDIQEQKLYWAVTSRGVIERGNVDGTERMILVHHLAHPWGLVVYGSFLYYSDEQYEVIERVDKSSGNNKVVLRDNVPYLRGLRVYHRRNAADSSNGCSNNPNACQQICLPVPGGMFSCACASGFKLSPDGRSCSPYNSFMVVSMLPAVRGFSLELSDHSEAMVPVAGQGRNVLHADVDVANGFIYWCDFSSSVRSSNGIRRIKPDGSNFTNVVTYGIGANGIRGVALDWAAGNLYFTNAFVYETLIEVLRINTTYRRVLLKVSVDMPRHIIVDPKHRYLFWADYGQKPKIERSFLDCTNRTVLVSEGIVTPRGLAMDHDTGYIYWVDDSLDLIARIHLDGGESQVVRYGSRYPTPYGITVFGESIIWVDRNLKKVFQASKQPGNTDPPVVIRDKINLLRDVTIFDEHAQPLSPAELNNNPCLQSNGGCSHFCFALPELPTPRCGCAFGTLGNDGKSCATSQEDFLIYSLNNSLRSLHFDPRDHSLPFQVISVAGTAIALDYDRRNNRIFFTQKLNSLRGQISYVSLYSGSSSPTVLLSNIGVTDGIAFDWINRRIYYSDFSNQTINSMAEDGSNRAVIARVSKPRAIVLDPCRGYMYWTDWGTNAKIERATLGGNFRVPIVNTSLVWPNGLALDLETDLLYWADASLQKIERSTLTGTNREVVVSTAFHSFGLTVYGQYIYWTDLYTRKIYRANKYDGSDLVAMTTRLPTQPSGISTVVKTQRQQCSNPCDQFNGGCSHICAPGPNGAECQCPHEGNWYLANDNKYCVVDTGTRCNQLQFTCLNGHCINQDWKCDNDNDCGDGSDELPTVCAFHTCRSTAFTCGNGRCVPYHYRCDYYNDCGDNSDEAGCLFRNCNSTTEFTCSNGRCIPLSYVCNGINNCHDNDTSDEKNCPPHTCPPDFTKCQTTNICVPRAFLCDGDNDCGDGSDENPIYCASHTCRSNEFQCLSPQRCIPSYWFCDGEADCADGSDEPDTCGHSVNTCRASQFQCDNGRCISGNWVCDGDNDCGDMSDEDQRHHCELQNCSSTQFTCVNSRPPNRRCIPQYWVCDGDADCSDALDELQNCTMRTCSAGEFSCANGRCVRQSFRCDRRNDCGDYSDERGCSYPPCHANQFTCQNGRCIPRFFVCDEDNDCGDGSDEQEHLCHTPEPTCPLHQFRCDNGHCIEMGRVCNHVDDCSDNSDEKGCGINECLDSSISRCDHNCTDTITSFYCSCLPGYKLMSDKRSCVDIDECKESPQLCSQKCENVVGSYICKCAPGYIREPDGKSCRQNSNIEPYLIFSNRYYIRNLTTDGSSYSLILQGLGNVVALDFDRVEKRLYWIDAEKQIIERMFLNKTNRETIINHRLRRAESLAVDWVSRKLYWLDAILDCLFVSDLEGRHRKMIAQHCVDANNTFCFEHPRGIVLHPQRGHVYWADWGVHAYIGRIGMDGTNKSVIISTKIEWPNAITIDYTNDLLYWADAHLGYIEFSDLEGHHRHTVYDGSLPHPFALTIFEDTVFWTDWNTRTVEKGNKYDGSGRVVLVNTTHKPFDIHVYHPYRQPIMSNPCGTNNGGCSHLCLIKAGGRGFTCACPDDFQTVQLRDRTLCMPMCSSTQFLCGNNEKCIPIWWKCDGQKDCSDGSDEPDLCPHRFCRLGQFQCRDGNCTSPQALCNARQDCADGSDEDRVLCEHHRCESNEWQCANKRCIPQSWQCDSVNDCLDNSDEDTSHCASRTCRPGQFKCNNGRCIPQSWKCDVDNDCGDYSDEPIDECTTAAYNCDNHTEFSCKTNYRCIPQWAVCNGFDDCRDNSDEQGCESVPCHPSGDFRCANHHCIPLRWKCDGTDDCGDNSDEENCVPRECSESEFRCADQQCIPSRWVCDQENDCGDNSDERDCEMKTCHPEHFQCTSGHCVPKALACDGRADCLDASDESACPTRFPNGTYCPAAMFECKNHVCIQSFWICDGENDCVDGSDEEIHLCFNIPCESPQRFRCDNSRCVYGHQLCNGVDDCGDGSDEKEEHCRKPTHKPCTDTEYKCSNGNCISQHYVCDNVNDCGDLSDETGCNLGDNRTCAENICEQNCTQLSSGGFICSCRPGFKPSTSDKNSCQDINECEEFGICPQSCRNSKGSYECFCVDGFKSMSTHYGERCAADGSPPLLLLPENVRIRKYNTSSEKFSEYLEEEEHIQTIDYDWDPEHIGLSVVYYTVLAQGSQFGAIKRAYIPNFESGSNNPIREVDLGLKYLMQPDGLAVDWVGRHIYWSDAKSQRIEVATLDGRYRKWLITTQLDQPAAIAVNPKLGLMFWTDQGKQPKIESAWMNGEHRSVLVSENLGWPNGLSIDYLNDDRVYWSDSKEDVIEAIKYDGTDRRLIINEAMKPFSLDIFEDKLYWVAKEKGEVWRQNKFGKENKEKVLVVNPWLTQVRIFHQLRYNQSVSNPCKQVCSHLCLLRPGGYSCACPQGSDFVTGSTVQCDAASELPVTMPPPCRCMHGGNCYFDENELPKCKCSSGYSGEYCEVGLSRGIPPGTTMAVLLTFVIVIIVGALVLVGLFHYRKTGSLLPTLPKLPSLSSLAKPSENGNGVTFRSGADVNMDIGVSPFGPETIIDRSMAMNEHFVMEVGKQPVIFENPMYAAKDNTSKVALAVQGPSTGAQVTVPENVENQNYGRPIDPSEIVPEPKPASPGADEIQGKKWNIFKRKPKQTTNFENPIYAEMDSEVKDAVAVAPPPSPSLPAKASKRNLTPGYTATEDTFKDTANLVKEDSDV

complexes of [3H]-dihydrotestosterone (DHT) and sex hormone binding globulin (SHBG) (ligand)
cell-associated [3H]-DHT after 4 hours at 37° C. in the presence of GST (control) [1]: 300000 cpm

fusion protein of GST and the receptor-associated protein (GST-RAP)
cell-associated [3H]-DHT after 4 hours at 37° C. in the presence of GST-RAP [1]: 70000 cpm | reduction in [3H]-DHT uptake in the presence of GST-RAP [1]: 75%

recombinant SHBG (rSHBG), 125I-labelled, in the presence of testosterone (from UniProt P04278 30-402) (ligand)
Kd [2]: 500 nM | IC50 (read off the curve) [3]: 1000 nM | IC50 (read off the curve) [4]: 3000 nM

testosterone/SHBG complex (sex hormone binding globulin with bound testosterone) (from UniProt P04278 30-402) (ligand)
Kd [5]: 140 nM

B1: SHBG: native sex hormone-binding globulin, plasma carrier of androgens and estrogens (protein, listed as Homo sapiens)
chain: MESRGPLATSRLLLLLLLLLLRHTRQGWALRPVLPTQSAHDPPAVHLSNGPGQEPIAVMTFDLTKITKTSSSFEVRTWDPEGVIFYGDTNPKDDWFMLGLRDGRPEIQLHNHWAQLTVGAGPRLDDGRWHQVEVKMEGDSVLLEVDGEEVLRLRQVSGPLTSKRHPIMRIALGGLLFPASNLRLPLVPALDGCLRRDSWLDKQAEISASAPTSLRSCDVESNPGIFLPPGTQAEFNLRDIPQPHAEPWAFSLDLGLKQAAGSGHLLALGTPENPSWLSLHLQDQKVVLSSGSGPGLDLPLVLGLPLQLKLSMSRVVLSQGSKMKALALPPLGLAPLLNLWAKPQGRLFLGALPGEDSSTSFCLNGLWAQGQRLDVDQALNRSHEIWTHSCPQSPGNGTDASH
Kd ([6]; membrane suspensions): 50 nM | Kd ([6]; solubilized membranes): 500 nM

B2: rSHBG: recombinant SHBG, 125I-labelled, tested for binding to SHBG receptors (protein, UniProt P04278 30-402, looked up)
Sex hormone-binding globulin: LRPVLPTQSAHDPPAVHLSNGPGQEPIAVMTFDLTKITKTSSSFEVRTWDPEGVIFYGDTNPKDDWFMLGLRDGRPEIQLHNHWAQLTVGAGPRLDDGRWHQVEVKMEGDSVLLEVDGEEVLRLRQVSGPLTSKRHPIMRIALGGLLFPASNLRLPLVPALDGCLRRDSWLDKQAEISASAPTSLRSCDVESNPGIFLPPGTQAEFNLRDIPQPHAEPWAFSLDLGLKQAAGSGHLLALGTPENPSWLSLHLQDQKVVLSSGSGPGLDLPLVLGLPLQLKLSMSRVVLSQGSKMKALALPPLGLAPLLNLWAKPQGRLFLGALPGEDSSTSFCLNGLWAQGQRLDVDQALNRSHEIWTHSCPQSPGNGTDASH
modifications: 125I-labelled
binding of 125I-labelled rSHBG (in words) ([7]; bovine epididymis membranes permeabilized in digitonin, competition with unlabelled rSHBG): saturable binding | Kd ([7]; permeabilized bovine epididymis membranes, in the presence of testosterone, read-out: affinity of binding (Kd)): 500 nM | binding of 125I-labelled rSHBG (in words) [8]: saturable binding
